PMC5261807 (2017)
Non-standard residues stand in square brackets, D forms with d. No end group written: not given here. Arg(Me2a) = CN(C)C(=N)NCCC[C@H](N)C(=O)O; Lys(Me3) = C[N+](C)(C)CCCC[C@H](N)C(=O)O; Arg(Me2s) = CN=C(NC)NCCC[C@H](N)C(=O)O; pS = N[C@@H](COP(=O)(O)O)C(=O)O; Lys(Me) = CNCCCC[C@H](N)C(=O)O

T1: Bdf1 bromodomain 1 (GST-tagged, WT) (Saccharomyces cerevisiae (strain ATCC …, UniProt P35817))
T1 chain: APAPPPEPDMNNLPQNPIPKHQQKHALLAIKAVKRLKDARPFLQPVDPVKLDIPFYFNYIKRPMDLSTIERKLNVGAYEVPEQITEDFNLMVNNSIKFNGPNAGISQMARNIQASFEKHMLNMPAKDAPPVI

T2: Bdf1 bromodomain 2 (GST-tagged, WT) (Saccharomyces cerevisiae (strain ATCC …, UniProt P35817))
T2 chain: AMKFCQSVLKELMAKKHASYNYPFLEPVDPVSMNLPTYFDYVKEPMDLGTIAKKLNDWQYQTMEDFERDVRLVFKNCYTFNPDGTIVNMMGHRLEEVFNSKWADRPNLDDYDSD

B1: H3 16-35 (peptide)
chain: PRKQLATKAARKSAPATGG
modifications: histone peptides carry modifications given inline in the sequence and in columns 4-7 (Kac, Kme1/2/3, Rme2a/s, Cit, pS/pT); N-terminus free or acetylated

Target: T1, Bdf1 bromodomain 1 (GST-tagged, WT)
Experiment: histone peptide array probed with recombinant GST-bromodomain, signal normalised to myc peptide control

How did the binding score turn out when ARTKQTARKSTGGKAPRKQ (A R T K Q T A Rme2a Kme2 pS T G G K A P R K Q) was run?
Its binding score is 0.00215.

With ARTKQTARKSTGGKAPRKQ (A R T Kme3 Q T A Rme2s Kme3 S T G G K A P R K Q) as the binder, how does the binding score read?
Its binding score is 0.

Which binding score does the source give for PDPAK(Ac)SAPAPKK(Ac)G[pS]K(Ac)KAVT [H2B 1-19] here?
Its binding score is 0.

RKSAPATGGVKKPHRYRPG (R K S A P A T G G V Kme3 K P H R Y R P G) [H3 26-45] was tested. Which binding score did it give?
Its binding score is 0.

Which binding score does the source give for SGRGKGGKGLGKGGAKRHR (S G R G Kac G G K G L G K G G A K R H R) [H4 1-19] here?
The binding score was 0.00681.

Which binding score does the source give for ARTKQTARKSTGGKAPRKQ (A Rme2a T Kac Q T A Rme2a Kme3 S T G G K A P R K Q) here?
Its binding score is 0.0133.

How did the binding score turn out when PRKQLATKAA[Arg(Me2s)]KSAPATGG was run?
Its binding score is 0.

How did the binding score turn out when B1 was run?
The binding score was 0.

ARTKQTARKSTGGKAPRKQ (A Rme2s T Kme1 Q T A Rme2s K S T G G K A P R K Q) was tested. Which binding score did it give?
Its binding score is 0.

How did the binding score turn out when ARTKQTARKSTGGKAPRKQ (A R T K Q T A R Kme1 S T G G Kac A P R K Q) was run?
Its binding score is 0.0251.

[pS]GRGK(Ac)QGGKARAKAKSRSS was tested. Which binding score did it give?
Its binding score is 0.00197.

With ARTKQTARKSTGGKAPRKQ (A R T K Q T A R Kme1 S pT G G K A P R K Q) as the binder, how does the binding score read?
The binding score was 0.0122.

For PRKQLATKAA[Arg(Me2s)][Lys(Me3)][pS]APATGG, which binding score is on record?
Its binding score is 0.00753.

For ARTKQTARKSTGGKAPRKQ (A Rme2s T Kme1 Q T A Rme2s Kac S T G G K A P R K Q), which binding score is on record?
The binding score was 0.0109.

How did the binding score turn out when A[Arg(Me2a)]TK(Me3)QTARKSTGGKAPRKQ was run?
Its binding score is 0.0122.

With PRKQLATKAA[Arg(Me2a)][Lys(Me)]SAPATGG as the binder, how does the binding score read?
The binding score was 0.00341.

With ARTKQTA[Arg(Me2a)]K(Ac)[pS]TGGKAPRKQ as the binder, how does the binding score read?
The binding score was 0.00126.

ARTKQTARKSTGGKAPRKQ (not fully specified) was tested. Which binding score did it give?
Its binding score is 0.00592.

For ARTKQTARKSTGGKAPRKQ (A Rme2s T Kac Q T A Rme2s Kme2 S T G G K A P R K Q), which binding score is on record?
The binding score was 0.

How did the binding score turn out when ARTKQTARKSTGGKAPRKQ (A Rme2s T Kme2 Q T A Rme2s Kme1 S T G G K A P R K Q) was run?
The binding score was 0.00323.

How did the binding score turn out when ARTKQTARKSTGGKAPRKQ (A Rme2s T Kme3 Q T A R Kme3 S T G G K A P R K Q) was run?
Its binding score is 0.0117.

[pS]GRGKQGGK(Ac)ARAK(Ac)AKSRSS was tested. Which binding score did it give?
The binding score was 0.0477.

With ARTKQTARKSTGGKAPRKQ (A R T K Q T A R K S pT G G Kac A P R K Q) as the binder, how does the binding score read?
Its binding score is 0.00574.

Which binding score does the source give for ARTKQTARKSTGGKAPRKQ (A Rme2s T Kme2 Q T A R K S T G G K A P R K Q) here?
Its binding score is 0.

With ARTKQTARKSTGGKAPRKQ (A Rme2s T Kme3 Q T A R K S T G G K A P R K Q) as the binder, how does the binding score read?
The binding score was 0.

Which binding score does the source give for ARTKQTARKSTGGKAPRKQ (A R T K Q T A R Kme3 S T G G K A P R K Q) here?
The binding score was 0.

Target: T2, Bdf1 bromodomain 2 (GST-tagged, WT)
Experiment: as above

For ARTKQTARKSTGGKAPRKQ (A R T K Q T A Rme2a Kme2 pS T G G K A P R K Q), which binding score is on record?
The binding score was 0.0062.

With ARTKQTARKSTGGKAPRKQ (A R T Kme3 Q T A Rme2s Kme3 S T G G K A P R K Q) as the binder, how does the binding score read?
The binding score was 0.

PDPAK(Ac)SAPAPKK(Ac)G[pS]K(Ac)KAVT [H2B 1-19] was tested. Which binding score did it give?
Its binding score is 0.181.

Which binding score does the source give for RKSAPATGGVKKPHRYRPG (R K S A P A T G G V Kme3 K P H R Y R P G) [H3 26-45] here?
The binding score was 0.

Which binding score does the source give for SGRGKGGKGLGKGGAKRHR (S G R G Kac G G K G L G K G G A K R H R) [H4 1-19] here?
Its binding score is 0.0404.

ARTKQTARKSTGGKAPRKQ (A Rme2a T Kac Q T A Rme2a Kme3 S T G G K A P R K Q) was tested. Which binding score did it give?
Its binding score is 0.00659.

For PRKQLATKAA[Arg(Me2s)]KSAPATGG, which binding score is on record?
The binding score was 0.

Which binding score does the source give for B1 here?
The binding score was 0.

How did the binding score turn out when ARTKQTARKSTGGKAPRKQ (A Rme2s T Kme1 Q T A Rme2s K S T G G K A P R K Q) was run?
Its binding score is 0.0062.

How did the binding score turn out when ARTKQTARKSTGGKAPRKQ (A R T K Q T A R Kme1 S T G G Kac A P R K Q) was run?
The binding score was 0.0902.

For [pS]GRGK(Ac)QGGKARAKAKSRSS, which binding score is on record?
The binding score was 0.0135.

With ARTKQTARKSTGGKAPRKQ (A R T K Q T A R Kme1 S pT G G K A P R K Q) as the binder, how does the binding score read?
The binding score was 0.00344.

For PRKQLATKAA[Arg(Me2s)][Lys(Me3)][pS]APATGG, which binding score is on record?
The binding score was 0.

For ARTKQTARKSTGGKAPRKQ (A Rme2s T Kme1 Q T A Rme2s Kac S T G G K A P R K Q), which binding score is on record?
The binding score was 0.0269.

For A[Arg(Me2a)]TK(Me3)QTARKSTGGKAPRKQ, which binding score is on record?
The binding score was 0.00344.

How did the binding score turn out when PRKQLATKAA[Arg(Me2a)][Lys(Me)]SAPATGG was run?
Its binding score is 0.

With ARTKQTA[Arg(Me2a)]K(Ac)[pS]TGGKAPRKQ as the binder, how does the binding score read?
The binding score was 0.00384.

With ARTKQTARKSTGGKAPRKQ (not fully specified) as the binder, how does the binding score read?
The binding score was 0.00718.

Which binding score does the source give for ARTKQTARKSTGGKAPRKQ (A Rme2s T Kac Q T A Rme2s Kme2 S T G G K A P R K Q) here?
Its binding score is 0.

ARTKQTARKSTGGKAPRKQ (A Rme2s T Kme2 Q T A Rme2s Kme1 S T G G K A P R K Q) was tested. Which binding score did it give?
Its binding score is 0.00423.

Which binding score does the source give for ARTKQTARKSTGGKAPRKQ (A Rme2s T Kme3 Q T A R Kme3 S T G G K A P R K Q) here?
Its binding score is 0.

[pS]GRGKQGGK(Ac)ARAK(Ac)AKSRSS was tested. Which binding score did it give?
Its binding score is 0.186.

With ARTKQTARKSTGGKAPRKQ (A R T K Q T A R K S pT G G Kac A P R K Q) as the binder, how does the binding score read?
Its binding score is 0.121.

ARTKQTARKSTGGKAPRKQ (A Rme2s T Kme2 Q T A R K S T G G K A P R K Q) was tested. Which binding score did it give?
The binding score was 0.

For ARTKQTARKSTGGKAPRKQ (A Rme2s T Kme3 Q T A R K S T G G K A P R K Q), which binding score is on record?
The binding score was 0.

How did the binding score turn out when ARTKQTARKSTGGKAPRKQ (A R T K Q T A R Kme3 S T G G K A P R K Q) was run?
The binding score was 0.00305.
